The text below walks through data of US20020106690A1 (published 2002).

The experiment deals with T1, Ste20p (Saccharomyces cerevisiae (yeast), UniProt Q03497 1-939).
T1 construct: Full length Ste20p in yeast cells (endogenous, or from pDH166 / pSTE20-5); also called STE20^WT; wild-type Ste20p
T1 sequence: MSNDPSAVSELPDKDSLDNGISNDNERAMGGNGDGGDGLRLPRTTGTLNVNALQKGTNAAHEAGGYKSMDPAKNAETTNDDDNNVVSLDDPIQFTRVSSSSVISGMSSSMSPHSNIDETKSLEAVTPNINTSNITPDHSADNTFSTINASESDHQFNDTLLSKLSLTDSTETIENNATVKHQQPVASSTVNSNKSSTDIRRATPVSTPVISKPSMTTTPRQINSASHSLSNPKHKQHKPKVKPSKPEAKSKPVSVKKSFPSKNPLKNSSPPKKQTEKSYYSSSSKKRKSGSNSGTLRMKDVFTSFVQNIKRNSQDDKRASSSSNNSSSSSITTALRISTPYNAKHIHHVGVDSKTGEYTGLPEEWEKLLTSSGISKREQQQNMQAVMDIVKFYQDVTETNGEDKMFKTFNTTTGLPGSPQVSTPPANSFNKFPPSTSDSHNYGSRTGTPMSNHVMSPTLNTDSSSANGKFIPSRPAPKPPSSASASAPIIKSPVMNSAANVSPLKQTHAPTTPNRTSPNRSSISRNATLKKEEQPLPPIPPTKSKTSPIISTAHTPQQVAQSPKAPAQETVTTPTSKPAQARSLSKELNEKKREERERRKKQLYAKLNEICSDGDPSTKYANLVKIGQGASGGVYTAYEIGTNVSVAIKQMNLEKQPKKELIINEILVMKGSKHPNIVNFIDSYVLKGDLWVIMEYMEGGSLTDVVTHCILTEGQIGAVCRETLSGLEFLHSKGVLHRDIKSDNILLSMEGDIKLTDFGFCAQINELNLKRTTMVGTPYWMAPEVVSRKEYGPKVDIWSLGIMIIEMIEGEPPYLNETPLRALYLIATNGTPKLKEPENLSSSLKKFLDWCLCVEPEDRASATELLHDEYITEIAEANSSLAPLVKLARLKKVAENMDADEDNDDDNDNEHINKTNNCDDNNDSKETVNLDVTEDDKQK
Put plainly: co-immunoprecipitation from yeast extracts, anti-HA IP, Western blot. On the procedure:
Relative amounts of Ste20p and HA-Ste4p were determined in Western blots (see example in upper and middle panels) and quantified densitometrically (mean values ±SD, n=3) (lower panel). (B) Association of Ste5p with HA-Ste4p expressed from the STE4 promoter in cells deleted for STE4 . HA-Ste4p immunoprecipitates from exponentially growing (−) and pheromone-treated (90 minutes) (+) yeast cells were analyzed with antibodies to Ste5p (upper panel) or HA-Ste4p (lower panel). (C) Overexpression of Ste4p leads to binding to Ste20p. HA-Ste4p was overexpressed from the GAL1 promoter in cells deleted for STE20 (lane 1) or STE4 (lanes 2 and 3). […] Immunoprecipitates obtained with antibodies to Ste20p (lanes 1 and 2) or the HA-epitope (lanes 3 and 4) were analyzed for the presence of Ste20p (upper panel) and HA-Ste4p (lower panel). […] HA-Ste4p (lanes 1 and 2) and Ste20p (lanes 3 and 4) immunoprecipitates were analyzed for the presence of Ste20p (upper panel) and HA-Ste4p (lower panel) by Western blot analyses. […]
For the detection of Ste20p fragments, a secondary sheep antibody specific to rabbit immunoglobulin light chains and a tertiary HRP-conjugated donkey antibody to sheep IgG were obtained from The Binding Site, Lim. […] For quantitation, immunoblots were evaluated by integrating densitometry using an Epson ES 1200-C densitometer and the NIH Image 1.59 software.
Background: A western blot detects proteins with antibodies after separation by electrophoresis.

B1: HA-Ste4p (other, Saccharomyces cerevisiae (yeast), UniProt P18851 1-423, looked up, not shown: small tags and cut ends)
chain: MAAHQMDSITYSNNVTQQYIQPQSLQDISAVEDEIQNKIEAARQESKQLHAQINKAKHKIQDASLFQMANKVTSLTKNKINLKPNIVLKGHNNKISDFRWSRDSKRILSASQDGFMLIWDSASGLKQNAIPLDSQWVLSCAISPSSTLVASAGLNNNCTIYRVSKENRVAQNVASIFKGHTCYISDIEFTDNAHILTASGDMTCALWDIPKAKRVREYSDHLGDVLALAIPEEPNSENSSNTFASCGSDGYTYIWDSRSPSAVQSFYVNDSDINALRFFKDGMSIVAGSDNGAINMYDLRSDCSIATFSLFRGYEERTPTPTYMAANMEYNTAQSPQTLKSTSSSYLDNQGVVSLDFSASGRLMYSCYTDIGCVVWDVLKGEIVGKLEGHGGRVTGVRSSPDGLAVCTGSWDSTMKIWSPGYQ
Take B1: the binding result is given as “binds”.
